Where a chain is given by its changes, count along the chain named.

Test [1] concerns the target T1, peptide immunogen ANYCSGESEFVFLQKYPHTHLVHQA (human).
T1 construct: For immunization it was conjugated to KLH and a helper T-cell peptide; also called immunogenic peptide; immunogenic polypeptide
T1 peptide: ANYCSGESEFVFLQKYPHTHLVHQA
The test is described as follows: ELISA, peptide coated at 2 ug/ml, Fab 0.016-10 ug/ml. The protocol: Each well of two 96-well plates is coated with 70 μl of the peptide immunogen used to generate the Fabs (2 μg/ml in carbonate buffer, pH 9.6). The plates are incubated in a dry oven at 37° C. overnight with the lids removed. The wells are aspirated and washed twice with washing buffer (20 mM Tris (hydroxymethyl) aminomethane, pH 7.4, 0.15 M NaCl, 0.1% Tween-20). The plates are blocked with 200 μl blocking buffer per well (5% BioRad blotting grade milk in the above washing buffer) for 2.5 hours.
The Fabs are diluted into blocking buffer at 10 μg/ml, 2 μg/ml, 0.4 μg/ml, 0.08 μg/ml, and 0.016 μg/ml. A rat anti-myostatin monoclonal antibody (R&D Systems, catalog #MAB788, clone #84214) and a polyclonal anti-myostatin antibody (R&D Systems, catalog #AF788), are used as controls at the above concentrations and are also diluted in blocking buffer. Fifty microliters of each antibody solution is added to the peptide-coated wells in duplicate. The plates are incubated for 1.5 hours at room temperature. The wells are then washed 3 times with washing buffer.
Peroxidase-conjugated secondary antibody (50 μl goat anti-mouse kappa HRP (Southern Biotech) for Fabs, 50 μl mouse anti-rat (Jackson ImmunoResearch) for monoclonal, 50 μl rabbit anti-goat (Jackson ImmunoResearch) for polyclonal, all diluted 1:2000 in blocking buffer is added to each well and incubated for 1 hour at room temperature. The wells are then washed 3 times with washing buffer. Fifty microliters of chromogenic substrate (i.e., OPD substrate) is added to each well and allowed to develop at room temperature for 10 minutes. The reaction is stopped by adding 100 μl 1N HCl to each well. The absorbance of the wells is read at 490 nm.
For orientation: ELISA stands for enzyme-linked immunosorbent assay.

Test [2] has as its target T2, recombinant human GDF-11 (Peprotech, Inc., Cat. # 120-11, carrier-free) (human, UniProt O95390 299-407).
T2 construct: also called BMP-11
T2 sequence (looked up): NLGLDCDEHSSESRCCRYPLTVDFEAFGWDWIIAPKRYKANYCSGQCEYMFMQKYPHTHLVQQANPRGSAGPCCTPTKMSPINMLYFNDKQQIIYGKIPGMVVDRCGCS
The test is described as follows: ELISA, growth factor coated at 10 ug/ml, Fab at 10 ug/ml, mean of duplicate wells. On the procedure:
(§1) Peroxidase-conjugated secondary antibody (50 μl goat anti-mouse kappa HRP (Southern Biotech) for the Fabs, 50 μl rabbit anti-goat (Jackson ImmunoResearch) for the polyclonal, diluted 1:2000 in blocking buffer) is added to each well and incubated for 1 hour at room temperature. The wells are then washed 3 times with washing buffer. Fifty microliters of chromogenic substrate (i.e., OPD substrate) is added to each well and allowed to develop at room temperature for 10 minutes. The reaction is stopped by adding 100 μl 1N HCl to each well. The absorbance of the wells is read at 490 nm.

Test [3] deals with T3, IGF-1 (R&D Systems 291-G1) (UniProt P05019 49-118).
T3 construct: Negative control antigen
T3 sequence (P05019 49-118 limits assumed): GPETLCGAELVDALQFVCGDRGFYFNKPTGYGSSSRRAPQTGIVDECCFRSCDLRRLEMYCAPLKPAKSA
The description is as above. The protocol: as §1

Test [4] deals with T4, BMP-7 (R&D Systems 354-BP) (UniProt P18075 293-431).
T4 sequence (looked up): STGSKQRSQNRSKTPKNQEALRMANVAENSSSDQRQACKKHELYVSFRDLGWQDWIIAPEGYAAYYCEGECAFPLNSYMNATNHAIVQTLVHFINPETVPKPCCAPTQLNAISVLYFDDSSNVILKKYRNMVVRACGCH
The test is described as above. The protocol:
as §1

Test [5] deals with T5, TGF-beta2 (Peprotech, Inc. 100-35) (UniProt P61812 303-414).
T5 construct: also called TGF-b2
T5 sequence (looked up): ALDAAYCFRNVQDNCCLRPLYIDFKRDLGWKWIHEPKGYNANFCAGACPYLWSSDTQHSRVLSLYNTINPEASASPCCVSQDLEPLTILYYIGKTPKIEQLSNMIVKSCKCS
The test is described as above. The protocol:
as §1

Test [6] addresses TGF-alpha (R&D Systems 239-A) (UniProt P01135 40-89). Described as above. The protocol:
as §1

Test [7] addresses BMP-2 (R&D Systems 355-BEC/CF) (UniProt P12643 283-396). The description is as above. On the procedure: as §1
The target of test [8] is T6, recombinant mouse myostatin (R&D systems, Cat. #788-G8/CF, carrier-free) (mouse, UniProt O08689 268-376).
T6 construct: mature; also called GDF-8; GDF-8/myostatin
T6 sequence (looked up): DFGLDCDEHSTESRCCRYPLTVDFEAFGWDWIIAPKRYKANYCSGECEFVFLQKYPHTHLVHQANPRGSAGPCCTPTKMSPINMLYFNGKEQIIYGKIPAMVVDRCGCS
The test is described as above. On the procedure: as §1

Test [9] addresses T7, Activin B (R&D Systems 659-AB) (UniProt P09529 293-407).
T7 sequence (looked up): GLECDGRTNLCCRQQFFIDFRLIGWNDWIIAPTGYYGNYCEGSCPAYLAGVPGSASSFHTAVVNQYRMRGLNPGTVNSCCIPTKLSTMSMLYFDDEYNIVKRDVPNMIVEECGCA
The description is as above. On the procedure:
as §1

Test [10] concerns the target T8, BMP-5 (R&D Systems 615-BM) (UniProt P22003 317-454, limits assumed).
T8 sequence (looked up): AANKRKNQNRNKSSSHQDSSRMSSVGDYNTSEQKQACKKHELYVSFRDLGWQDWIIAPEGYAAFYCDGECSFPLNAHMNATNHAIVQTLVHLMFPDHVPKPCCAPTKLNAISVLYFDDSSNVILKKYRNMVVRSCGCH
The test is described as above. On the procedure: as §1

In test [11] the target is T9, BMP-6 (R&D Systems 507-BP) (UniProt P22004 382-513, limits assumed).
T9 sequence (looked up): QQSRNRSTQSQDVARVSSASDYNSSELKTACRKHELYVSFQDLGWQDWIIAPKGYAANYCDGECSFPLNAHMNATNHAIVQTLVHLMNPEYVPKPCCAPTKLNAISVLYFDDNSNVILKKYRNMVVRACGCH
Described as above. The protocol:
as §1

The target in test [12] is T10, TGF-beta1 (Peprotech, Inc. 100-21R) (UniProt P01137 279-390).
T10 construct: also called TGF-b1
T10 sequence (P01137 279-390 limits assumed): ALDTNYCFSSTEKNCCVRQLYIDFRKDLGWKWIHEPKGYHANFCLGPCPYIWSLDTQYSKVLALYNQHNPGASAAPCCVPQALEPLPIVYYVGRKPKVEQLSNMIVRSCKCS
The test is described as above. The protocol: as §1

Test [13] deals with T11, Activin A (R&D Systems 338-AC) (UniProt P08476 311-426).
T11 sequence (looked up): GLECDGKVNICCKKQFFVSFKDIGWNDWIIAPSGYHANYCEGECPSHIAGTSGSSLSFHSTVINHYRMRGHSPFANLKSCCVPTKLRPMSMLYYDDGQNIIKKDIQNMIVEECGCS
The description is as above. On the procedure:
as §1

Sequence of TGF-alpha (R&D Systems 239-A) (P01135 40-89 limits assumed): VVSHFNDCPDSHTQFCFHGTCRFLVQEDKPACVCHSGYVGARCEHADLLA
Sequence of BMP-2 (R&D Systems 355-BEC/CF) (P12643 283-396 limits assumed): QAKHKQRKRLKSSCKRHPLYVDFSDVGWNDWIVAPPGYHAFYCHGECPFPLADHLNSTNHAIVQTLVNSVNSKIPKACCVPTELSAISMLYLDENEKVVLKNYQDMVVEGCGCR

B1: Fab 8 (Fab, V domains shown)
VH: QVTLKESGPGILQSSQTLSLTCSLSGFSLRTSGMSVSWIRQSSGKGLEWLAHIYWDDDKRYNPSLRNRLTISKDTLRNQVFLKITSVGTADTATYYCARRAITTVIGGGTMDYWGQGTSVTVSS
VL: QIVLTQSPAIMSASPGEKVTMTCSASSSVSYMHWYQQKSGTSPKRWIYDTSKLASGVPARFSGSGSGTSYSLTISSMEAEDAATYYCQQWSSNPLTFGAGTKLELKR
notes: Mouse Fab, kappa light chain; also called anti-myostatin Fab 8
Take B1: the binding result in test [1] is recorded as “binds”.

B2: Fab 7 (Fab, V domains shown)
VH: QVTLKSGPGILQSSQTLTLTCSLSGFSLTTSGMIVSWIRQSSGRGLEWLAHIYWDDDKRYNPSLRNRLTISKDTLRNQVFLWISSVGTADTATYYCARRAITTVIGGGTMDYWGQGTSVTVSS
VL: B1 VL with V29I, S39P, S91Y
notes: Mouse Fab, kappa light chain; also called anti-myostatin Fab 7
As for B2, the “absorbance at 490 nm” value in test [2] was found to be 0.04 OD 490 nm; in [3], 0.034 OD 490 nm; in [4], 0.031 OD 490 nm; in test [5], 0.0345 OD 490 nm; in [6] it was 0.0315 OD 490 nm; in test [7], 0.0335 OD 490 nm. The “absorbance at 490 nm” value in test [8] was found to be 0.358 OD 490 nm; in [9] it was 0.031 OD 490 nm; in test [10] it was 0.0345 OD 490 nm; in test [11], 0.035 OD 490 nm; in [12], 0.032 OD 490 nm; in [13], 0.0325 OD 490 nm.

B3: Fab 12 (Fab, V domains shown)
VH: B1 VH with I11M
VL: B1 VL with I2V, S30Y, K38R, T41A, S91T, S92Y
notes: Mouse Fab, kappa light chain; also called anti-myostatin Fab 12
With B3, in test [1], the binding result is given as “binds”.

B4: Fab 5 (Fab, V domains shown)
VH: B1 VH with L24F, R30S, N67S, L76S, G88D, A101G, I106L
VL: B1 VL with I2V, P15L, S30H
notes: Mouse Fab, kappa light chain; also called anti-myostatin Fab 5
Take B4: the “absorbance at 490 nm” value is 0.034 OD 490 nm in [2]; 0.035 OD 490 nm in [3]; 0.032 OD 490 nm in test [4]; 0.034 OD 490 nm in [5]; 0.033 OD 490 nm in [6]; 0.032 OD 490 nm in [7]. The “absorbance at 490 nm” value in test [8] is 0.202 OD 490 nm; in [9] it was 0.033 OD 490 nm; in test [10], 0.033 OD 490 nm; in test [11], 0.0325 OD 490 nm; in test [12], 0.0325 OD 490 nm; in [13] it was 0.033 OD 490 nm. Besides, the binding result in test [1] was “binds”.

B5: Fab 14 (Fab, V domains shown)
VH: B1 VH
VL: B1 VL with S39P, S91Y
notes: Mouse Fab, kappa light chain; also called anti-myostatin Fab 14
As for B5, the binding result in test [1] is “binds”.

B6: Fab 3 (Fab, V domains shown)
VH: B1 VH
VL: B1 VL with V29I, S39P, S91Y
notes: Mouse Fab from a Biosite Omniclonal library, kappa light chain (detected or captured with goat anti-mouse kappa); also called anti-myostatin Fab 3
B6: the “absorbance at 490 nm” value in [2] was 0.0705 OD 490 nm; in [3] it was 0.034 OD 490 nm; in [4] it was 0.033 OD 490 nm; in [5] it was 0.034 OD 490 nm; in test [6], 0.033 OD 490 nm; in test [7], 0.0345 OD 490 nm. For the same molecule, the “absorbance at 490 nm” value in test [8] was determined as 0.419 OD 490 nm; in [9] it was 0.032 OD 490 nm; in test [10], 0.034 OD 490 nm; in test [11] it was 0.0335 OD 490 nm; in test [12], 0.034 OD 490 nm; in test [13] it was 0.033 OD 490 nm. Further, the binding result in test [1] was “binds”.

B7: Fab 10 (Fab, V domains shown)
VH: B1 VH with S14P, K59E
VL: B1 VL with I2V, V29I, S39P, S91Y
notes: Mouse Fab, kappa light chain; also called anti-myostatin Fab 10
With B7, the binding result in test [1] is given as “binds”.

B8: Fab 11 (Fab, V domains shown)
VH: B1 VH
VL: B1 VL with V29I, S39P, S91N
notes: Mouse Fab, kappa light chain; also called anti-myostatin Fab 11
Take B8: in test [1], the binding result was “binds”.

B9: Fab 15 (Fab, V domains shown)
VH: B1 VH
VL: B1 VL with K18E, V29I, S30N, S91N, A99G
notes: Mouse Fab, kappa light chain; also called anti-myostatin Fab 15
For B9, the binding result in test [1] is given as “binds”.
